This passage reports EC50 results from US20230125301A1 (published 2023).

Like-named read-outs stand apart in the source and are kept apart here.

Experiment in all cases: FACS binding, CHO-K1 cells
(In general: In flow cytometry, cells or beads pass a laser one at a time.)

Assay [1] deals with T1, human PD-L1 (human, UniProt Q9NZQ7 19-290).
The target in assay [2] is T1, human PD-L1. This is another data set of the same source.
Assay [3] concerns the target T1, human PD-L1. The source holds these as a separate data set.

In general, EC50 refers to the midpoint of the concentration-response curve. A low value points to higher potency in that assay.

T1 sequence (Q9NZQ7 19-290): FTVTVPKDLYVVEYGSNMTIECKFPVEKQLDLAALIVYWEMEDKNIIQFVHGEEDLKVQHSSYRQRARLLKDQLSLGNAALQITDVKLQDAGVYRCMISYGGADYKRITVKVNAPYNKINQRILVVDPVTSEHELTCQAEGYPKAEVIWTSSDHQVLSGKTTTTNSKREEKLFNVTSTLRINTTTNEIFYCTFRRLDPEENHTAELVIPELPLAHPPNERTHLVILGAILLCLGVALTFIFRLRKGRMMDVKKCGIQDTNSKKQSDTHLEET

B1: pdl1a-G12-CLDN18L (bispecific antibody)
heavy: not shown
light: EVQLVESGGGLVQPGGSLRLSCAASGRTFVTYGMGWFRQAPGKGREFVSAISWSGSMTSYGDSVKGRFTISRDNAKNTLYLQMNSLRPEDTAVYYCAAALGAVVYTTREPYTYWGQGTLVTVSSGGGGSGGGGSGSDIVMTQSPLSLPVTPGEPASISCKSSQTLLNSGNQKNYLTWYLQKPGQSPQLLIYWASTGESGVPDRFSGSGSGTDFTLKISRVEAEDVGVYYCQNAYFYPFTFGGGTKVEIKRTVAAPSVFIFPPSDEQLKSGTASVVCLLNNFYPREAKVQWKVDNALQSGNSQESVTEQDSKDSTYSLSSTLTLSKADYEKHKVYACEVTHQGLSSPVTKSFNRGEC
Take B1: in assay [1], it took 0.0898 nM to reach a half-maximal effect (EC50).

B2: CLDN18L-G12-pdl1a (bispecific antibody)
heavy: not shown
light: DIVMTQSPLSLPVTPGEPASISCKSSQTLLNSGNQKNYLTWYLQKPGQSPQLLIYWASTGESGVPDRFSGSGSGTDFTLKISRVEAEDVGVYYCQNAYFYPFTFGGGTKVEIKRTVAAPSVFIFPPSDEQLKSGTASVVCLLNNFYPREAKVQWKVDNALQSGNSQESVTEQDSKDSTYSLSSTLTLSKADYEKHKVYACEVTHQGLSSPVTKSFNRGECGGGGSGGGGSGSEVQLVESGGGLVQPGGSLRLSCAASGRTFVTYGMGWFRQAPGKGREFVSAISWSGSMTSYGDSVKGRFTISRDNAKNTLYLQMNSLRPEDTAVYYCAAALGAVVYTTREPYTYWGQGTLVTVSS
B2: in assay [1], the EC50 came to 0.808 nM.

B3: CLDN18L-E2-pdl1a (bispecific antibody)
heavy: not shown
light: DIVMTQSPLSLPVTPGEPASISCKSSQTLLNSGNQKNYLTWYLQKPGQSPQLLIYWASTGESGVPDRFSGSGSGTDFTLKISRVEAEDVGVYYCQNAYFYPFTFGGGTKVEIKRTVAAPSVFIFPPSDEQLKSGTASVVCLLNNFYPREAKVQWKVDNALQSGNSQESVTEQDSKDSTYSLSSTLTLSKADYEKHKVYACEVTHQGLSSPVTKSFNRGECERKSSVESPPSPEVQLVESGGGLVQPGGSLRLSCAASGRTFVTYGMGWFRQAPGKGREFVSAISWSGSMTSYGDSVKGRFTISRDNAKNTLYLQMNSLRPEDTAVYYCAAALGAVVYTTREPYTYWGQGTLVTVSS
In turn, B3 registered an EC50 in assay [2] of 0.333 nM.

B4: CLDN18L-G15-pdl1a (bispecific antibody)
heavy: not shown
light: DIVMTQSPLSLPVTPGEPASISCKSSQTLLNSGNQKNYLTWYLQKPGQSPQLLIYWASTGESGVPDRFSGSGSGTDFTLKISRVEAEDVGVYYCQNAYFYPFTFGGGTKVEIKRTVAAPSVFIFPPSDEQLKSGTASVVCLLNNFYPREAKVQWKVDNALQSGNSQESVTEQDSKDSTYSLSSTLTLSKADYEKHKVYACEVTHQGLSSPVTKSFNRGECGGGGSGGGGSGGGGSEVQLVESGGGLVQPGGSLRLSCAASGRTFVTYGMGWFRQAPGKGREFVSAISWSGSMTSYGDSVKGRFTISRDNAKNTLYLQMNSLRPEDTAVYYCAAALGAVVYTTREPYTYWGQGTLVTVSS
As to B4, the EC50 worked out at 0.404 nM in assay [1] and 0.456 nM in assay [3].

B5: CLDN18H-E-pdl1b (bispecific antibody)
heavy: not shown
light: DIVMTQSPLSLPVTPGEPASISCKSSQTLLNSGNQKNYLTWYLQKPGQSPQLLIYWASTGESGVPDRFSGSGSGTDFTLKISRVEAEDVGVYYCQNAYFYPFTFGGGTKVEIKRTVAAPSVFIFPPSDEQLKSGTASVVCLLNNFYPREAKVQWKVDNALQSGNSQESVTEQDSKDSTYSLSSTLTLSKADYEKHKVYACEVTHQGLSSPVTKSFNRGEC
B5 registered an EC50 in assay [3] of 0.296 nM. This counts as sub-nanomolar.

B6: pdl1a-G15-CLDN18H (bispecific antibody)
heavy: not shown
light: DIVMTQSPLSLPVTPGEPASISCKSSQTLLNSGNQKNYLTWYLQKPGQSPQLLIYWASTGESGVPDRFSGSGSGTDFTLKISRVEAEDVGVYYCQNAYFYPFTFGGGTKVEIKRTVAAPSVFIFPPSDEQLKSGTASVVCLLNNFYPREAKVQWKVDNALQSGNSQESVTEQDSKDSTYSLSSTLTLSKADYEKHKVYACEVTHQGLSSPVTKSFNRGEC
The molecule B6 returned a concentration giving a half-maximal response (EC50) in assay [1] of 0.134 nM.

B7: CLDN18H-E-pdl1c (bispecific antibody)
heavy: not shown
light: DIVMTQSPLSLPVTPGEPASISCKSSQTLLNSGNQKNYLTWYLQKPGQSPQLLIYWASTGESGVPDRFSGSGSGTDFTLKISRVEAEDVGVYYCQNAYFYPFTFGGGTKVEIKRTVAAPSVFIFPPSDEQLKSGTASVVCLLNNFYPREAKVQWKVDNALQSGNSQESVTEQDSKDSTYSLSSTLTLSKADYEKHKVYACEVTHQGLSSPVTKSFNRGEC
In turn, B7 returned a concentration for a half-maximal effect (EC50) in assay [3] of 0.317 nM.

B8: pdl1a-E-CLDN18H (bispecific antibody)
heavy: not shown
light: DIVMTQSPLSLPVTPGEPASISCKSSQTLLNSGNQKNYLTWYLQKPGQSPQLLIYWASTGESGVPDRFSGSGSGTDFTLKISRVEAEDVGVYYCQNAYFYPFTFGGGTKVEIKRTVAAPSVFIFPPSDEQLKSGTASVVCLLNNFYPREAKVQWKVDNALQSGNSQESVTEQDSKDSTYSLSSTLTLSKADYEKHKVYACEVTHQGLSSPVTKSFNRGEC
With B8, the EC50 was 0.143 nM in assay [1] and 0.0745 nM in assay [3].

B9: CLDN18H-E-pdl1a (bispecific antibody)
heavy: not shown
light: DIVMTQSPLSLPVTPGEPASISCKSSQTLLNSGNQKNYLTWYLQKPGQSPQLLIYWASTGESGVPDRFSGSGSGTDFTLKISRVEAEDVGVYYCQNAYFYPFTFGGGTKVEIKRTVAAPSVFIFPPSDEQLKSGTASVVCLLNNFYPREAKVQWKVDNALQSGNSQESVTEQDSKDSTYSLSSTLTLSKADYEKHKVYACEVTHQGLSSPVTKSFNRGEC
B9: in assay [3], the concentration for a half-maximal effect (EC50) came out at 1.46 nM.

B10: pdl1a-G12-CLDN18H (bispecific antibody)
heavy: not shown
light: DIVMTQSPLSLPVTPGEPASISCKSSQTLLNSGNQKNYLTWYLQKPGQSPQLLIYWASTGESGVPDRFSGSGSGTDFTLKISRVEAEDVGVYYCQNAYFYPFTFGGGTKVEIKRTVAAPSVFIFPPSDEQLKSGTASVVCLLNNFYPREAKVQWKVDNALQSGNSQESVTEQDSKDSTYSLSSTLTLSKADYEKHKVYACEVTHQGLSSPVTKSFNRGEC
As to B10, in assay [1], the response was half-maximal at 0.0989 nM (EC50).

B11: CLDN18H-G9-pdl1a (bispecific antibody)
heavy: not shown
light: DIVMTQSPLSLPVTPGEPASISCKSSQTLLNSGNQKNYLTWYLQKPGQSPQLLIYWASTGESGVPDRFSGSGSGTDFTLKISRVEAEDVGVYYCQNAYFYPFTFGGGTKVEIKRTVAAPSVFIFPPSDEQLKSGTASVVCLLNNFYPREAKVQWKVDNALQSGNSQESVTEQDSKDSTYSLSSTLTLSKADYEKHKVYACEVTHQGLSSPVTKSFNRGEC
In assay [1], B11 displayed an EC50 of 0.111 nM.

B12: CLDN18H-G15-pdl1a (bispecific antibody)
heavy: not shown
light: DIVMTQSPLSLPVTPGEPASISCKSSQTLLNSGNQKNYLTWYLQKPGQSPQLLIYWASTGESGVPDRFSGSGSGTDFTLKISRVEAEDVGVYYCQNAYFYPFTFGGGTKVEIKRTVAAPSVFIFPPSDEQLKSGTASVVCLLNNFYPREAKVQWKVDNALQSGNSQESVTEQDSKDSTYSLSSTLTLSKADYEKHKVYACEVTHQGLSSPVTKSFNRGEC
Take B12: the EC50 in assay [1] came to 0.219 nM; in assay [3], 0.525 nM.

B13: CLDN18H-G12-pdl1a (bispecific antibody)
heavy: not shown
light: DIVMTQSPLSLPVTPGEPASISCKSSQTLLNSGNQKNYLTWYLQKPGQSPQLLIYWASTGESGVPDRFSGSGSGTDFTLKISRVEAEDVGVYYCQNAYFYPFTFGGGTKVEIKRTVAAPSVFIFPPSDEQLKSGTASVVCLLNNFYPREAKVQWKVDNALQSGNSQESVTEQDSKDSTYSLSSTLTLSKADYEKHKVYACEVTHQGLSSPVTKSFNRGEC
Turning to B13, a half-maximal effect in assay [1] (EC50) was put at 0.281 nM.

B14: pdl1a-E-CLDN18L (bispecific antibody)
heavy: not shown
light: EVQLVESGGGLVQPGGSLRLSCAASGRTFVTYGMGWFRQAPGKGREFVSAISWSGSMTSYGDSVKGRFTISRDNAKNTLYLQMNSLRPEDTAVYYCAAALGAVVYTTREPYTYWGQGTLVTVSSEPKSSDKTHTSPPSPDIVMTQSPLSLPVTPGEPASISCKSSQTLLNSGNQKNYLTWYLQKPGQSPQLLIYWASTGESGVPDRFSGSGSGTDFTLKISRVEAEDVGVYYCQNAYFYPFTFGGGTKVEIKRTVAAPSVFIFPPSDEQLKSGTASVVCLLNNFYPREAKVQWKVDNALQSGNSQESVTEQDSKDSTYSLSSTLTLSKADYEKHKVYACEVTHQGLSSPVTKSFNRGEC
B14: the EC50 is 0.107 nM in assay [1] and 0.131 nM in assay [3].

B15: CLDN18L-Ea-pdl1a (bispecific antibody)
heavy: not shown
light: DIVMTQSPLSLPVTPGEPASISCKSSQTLLNSGNQKNYLTWYLQKPGQSPQLLIYWASTGESGVPDRFSGSGSGTDFTLKISRVEAEDVGVYYCQNAYFYPFTFGGGTKVEIKRTVAAPSVFIFPPSDEQLKSGTASVVCLLNNFYPREAKVQWKVDNALQSGNSQESVTEQDSKDSTYSLSSTLTLSKADYEKHKVYACEVTHQGLSSPVTKSFNRGECEPKSSDKGHGGPPGPEVQLVESGGGLVQPGGSLRLSCAASGRTFVTYGMGWFRQAPGKGREFVSAISWSGSMTSYGDSVKGRFTISRDNAKNTLYLQMNSLRPEDTAVYYCAAALGAVVYTTREPYTYWGQGTLVTVSS
B15: a half-maximal response in assay [2] (EC50) required 0.394 nM.

B16: CLDN18L-E-pdl1b (bispecific antibody)
heavy: not shown
light: DIVMTQSPLSLPVTPGEPASISCKSSQTLLNSGNQKNYLTWYLQKPGQSPQLLIYWASTGESGVPDRFSGSGSGTDFTLKISRVEAEDVGVYYCQNAYFYPFTFGGGTKVEIKRTVAAPSVFIFPPSDEQLKSGTASVVCLLNNFYPREAKVQWKVDNALQSGNSQESVTEQDSKDSTYSLSSTLTLSKADYEKHKVYACEVTHQGLSSPVTKSFNRGECEPKSSDKTHTSPPSPEVQLVESGGGLVQPGGSLRLSCAASGRTFVTYGMGWFRQAPGKGREFVSAISWSGSSTSYGDSVKGRFTISRDNAKNTLYLQMNSLRPEDTAVYYCAAALGAVVYTTREPYTYWGQGTLVTVSS
In assay [3], B16 returned a concentration for a half-maximal effect (EC50) of 0.516 nM.

B17: pdl1a-G15-CLDN18L (bispecific antibody)
heavy: not shown
light: EVQLVESGGGLVQPGGSLRLSCAASGRTFVTYGMGWFRQAPGKGREFVSAISWSGSMTSYGDSVKGRFTISRDNAKNTLYLQMNSLRPEDTAVYYCAAALGAVVYTTREPYTYWGQGTLVTVSSGGGGSGGGGSGGGGSDIVMTQSPLSLPVTPGEPASISCKSSQTLLNSGNQKNYLTWYLQKPGQSPQLLIYWASTGESGVPDRFSGSGSGTDFTLKISRVEAEDVGVYYCQNAYFYPFTFGGGTKVEIKRTVAAPSVFIFPPSDEQLKSGTASVVCLLNNFYPREAKVQWKVDNALQSGNSQESVTEQDSKDSTYSLSSTLTLSKADYEKHKVYACEVTHQGLSSPVTKSFNRGEC
In assay [1], B17 gave an EC50 of 0.147 nM.
